The target in the assay is T1, histone H3 (H3) peptide, unmodified (UniProt P68431 2-31).
T1 construct: A synthetic peptide of histone H3, not the whole protein; also called unmodified H3
The assay can be described thus: western blot of peptides. On the procedure:
Four distinct peptides—histone H3 (H3), citrullinated histone H3 (CitH3; 4 Cit), acetylated histone H3 (AccH3), and methylated histone H3 (MetH3)—at a concentration of 0.5 microgram each, were run in duplicate through SDS-polyacrylamide gel electrophoresis and then transferred to a nitrocellulose membrane (FIG. 7A). This membrane was split into two sections for parallel probing with an equal quantity of Cayman CitH3-mAb (Ann Arbor, MI) or hCitH3-mAb (2 μg/ml) overnight. Post three extensive washes, the sections were incubated with HRP-conjugated secondary antibodies specific to mouse IgG and human IgG (Jackson ImmunoResearch Labs. Cat #309-035-008), respectively, for 2 hours. For concurrent signal development, both membrane sections were exposed simultaneously for the same duration.

The record followed here is US20240262899A1 (UNIVERSITY OF VIRGINIA PATENT FOUNDATION, published 2024).

B1: Y1128-VH3/VL3 (hCitH3-mAb) (antibody, V domains shown)
VH: EVQVVQSGAEVKKPGATVKISCKASGFNIKDYYMHWMKQRPEQGLEWIGWIDPENGNTIYDPKFQGRATITSDTSTDTAYLELSSLRSEDTAVYYCAPFGNYVWFAYWGQGTLVTVSS
VL: DVLMTQSPLSLPVTLGQPASISCRSSQSIVHSNGITYLEWYLQRPGQSPKLLIYKVSNRFSGVPDRFSGSGSGTDFTLKISRVEAEDVGLYYCFQGSHVPFTFGQGTKLEIKR
notes: Final lead humanized antibody; intact IgG, detected with anti-human IgG secondary; also called H3L3; humanized CitH3 monoclonal antibody
For B1, the binding result is reported as “no binding (tested: 2 ug/ml antibody; 0.5 microgram peptide)”.
